Tests used:
[1] = molecular target: T1, soluble human transferrin receptor 1 (human, UniProt P02786); assay: BLI; details: both partners purified
T1 construct: also called sTfR1; human sTfR1

[2] = molecular target: T2, human transferrin receptor 1 on the cell surface (human (endogenous in erythroblasts), UniProt P02786); details: one partner purified
T2 construct: also called hTfR1; TfR1
T2 sequence (P02786 whole entry): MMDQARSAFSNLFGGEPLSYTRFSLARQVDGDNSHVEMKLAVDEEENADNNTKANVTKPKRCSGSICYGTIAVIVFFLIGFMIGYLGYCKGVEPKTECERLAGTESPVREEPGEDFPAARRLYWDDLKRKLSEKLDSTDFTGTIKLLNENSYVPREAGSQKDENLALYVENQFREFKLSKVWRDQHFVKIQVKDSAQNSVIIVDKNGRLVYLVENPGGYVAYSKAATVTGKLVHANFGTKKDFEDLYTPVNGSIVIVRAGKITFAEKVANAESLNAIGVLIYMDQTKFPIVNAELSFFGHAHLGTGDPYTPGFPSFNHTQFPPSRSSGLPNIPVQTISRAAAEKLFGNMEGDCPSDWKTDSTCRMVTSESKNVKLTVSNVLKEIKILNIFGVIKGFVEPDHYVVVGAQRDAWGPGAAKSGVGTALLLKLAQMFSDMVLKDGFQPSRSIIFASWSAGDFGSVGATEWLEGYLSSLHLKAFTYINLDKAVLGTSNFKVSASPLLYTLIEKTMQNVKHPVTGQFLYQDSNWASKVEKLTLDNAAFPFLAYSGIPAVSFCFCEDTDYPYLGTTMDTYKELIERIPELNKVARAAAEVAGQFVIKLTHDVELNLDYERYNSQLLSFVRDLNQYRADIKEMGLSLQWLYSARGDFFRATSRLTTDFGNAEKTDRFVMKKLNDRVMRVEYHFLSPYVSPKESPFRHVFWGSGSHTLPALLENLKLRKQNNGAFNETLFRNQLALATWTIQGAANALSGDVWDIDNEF

T1 sequence (P02786 121-760): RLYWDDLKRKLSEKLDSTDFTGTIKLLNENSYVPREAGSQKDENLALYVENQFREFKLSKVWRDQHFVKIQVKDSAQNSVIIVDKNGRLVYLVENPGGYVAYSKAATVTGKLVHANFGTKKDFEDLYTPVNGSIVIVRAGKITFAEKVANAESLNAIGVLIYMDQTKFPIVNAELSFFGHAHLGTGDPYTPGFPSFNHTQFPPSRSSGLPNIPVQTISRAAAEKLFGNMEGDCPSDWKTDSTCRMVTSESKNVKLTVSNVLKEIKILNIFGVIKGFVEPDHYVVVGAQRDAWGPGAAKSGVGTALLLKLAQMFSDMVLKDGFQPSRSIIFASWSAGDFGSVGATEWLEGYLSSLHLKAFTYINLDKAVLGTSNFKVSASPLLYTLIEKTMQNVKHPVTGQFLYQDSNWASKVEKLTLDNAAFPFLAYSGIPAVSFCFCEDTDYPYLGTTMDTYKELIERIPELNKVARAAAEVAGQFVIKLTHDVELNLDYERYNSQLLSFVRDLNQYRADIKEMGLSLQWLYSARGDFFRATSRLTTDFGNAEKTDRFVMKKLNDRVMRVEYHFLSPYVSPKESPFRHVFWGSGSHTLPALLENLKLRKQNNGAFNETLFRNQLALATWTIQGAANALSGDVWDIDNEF

B1: Fab fragment of the mouse/human chimeric 128.1 IgG1 antibody (Fab, V domains shown)
VH: EVQLQQSGPELVKPGASMKISCKASGYSFTGYTMNWVKQSHGENLEWIGRINPHNGGTDYNQKFKDKAPLTVDKSSNTAYMELLSLTSGDSAVYYCARGYYYYSLDYWGQGTSVTVSS
VL: QIVLTQSPAIMSVSPGEKVTMTCSASSSIRYIHWYQQRPGTSPKRWIYDTSNLASGVPARFSGSGSGTSYSLTISSMEAEDAATYYCHQRNSYPWTFGGGTRLEIR
notes: also called Fab ch128.1/IgG1; ch128.1 Fab
B1: binds [1].

B2: mouse/human chimeric IgG1/κ antibody ch128.1/IgG1 (antibody, V domains shown)
VH: B1 VH
VL: B1 VL
B2: binds [2].

— article PMC8799657 (Nature Communications, 2022)
